Assay in all cases: purified protein
Substrate in data set [1]: O=C(O)[C@H]1NCC[C@@H]1O
Type of data set: biochemical, Agrobacterium fabrum. To be noted: t3HypD (dehydration) reaction, 50 mM Na-phosphate pH 8.0, 1 mM DTT, 25°C.

Substrate in data set [2]: O=C(O)[C@@H]1C[C@@H](O)CN1
The data set is classed as biochemical, Paracoccus denitrificans. To be noted: 4HypE reaction (start from t4Hyp as in Figure 1), 50 mM Na-phosphate pH 8.0, 1 mM DTT, 25°C.

Substrate in data set [3]: O=C(O)[C@@H]1C[C@@H](O)CN1
Type of data set: biochemical, Streptosporangium roseum. To be noted: 4HypE reaction (start from t4Hyp as in Figure 1), 50 mM Na-phosphate pH 8.0, 1 mM DTT, 25°C.

Substrate in data set [4]: O=C(O)[C@H]1NCC[C@@H]1O
The data set is classed as biochemical, Burkholderia ambifaria. To be noted: t3HypD (dehydration) reaction, 50 mM Na-phosphate pH 8.0, 1 mM DTT, 25°C.

Substrate in data set [5]: O=C(O)C1=NCCC1
To be noted: 0.16 mM NADPH, 50 mM Tris-HCl pH 7.6, 25°C.

Substrate in data set [6]: O=C(O)[C@@H]1C[C@@H](O)CN1
Type of data set: biochemical, Roseibium aggregatum. To be noted: 4HypE reaction (start from t4Hyp as in Figure 1), 50 mM Na-phosphate pH 8.0, 1 mM DTT, 25°C.

Substrate in data set [7]: O=C(O)[C@H]1NCC[C@@H]1O
To be noted: t3HypD (dehydration) reaction, 50 mM Na-phosphate pH 8.0, 1 mM DTT, 25°C.

Substrate in data set [8]: O=C(O)[C@H]1NCC[C@@H]1O
The data set is classed as biochemical, Gillisella ampelina. To be noted: t3HypD (dehydration) reaction, 50 mM Na-phosphate pH 8.0, 1 mM DTT, 25°C.

Substrate in data set [9]: O=C(O)[C@@H]1C[C@@H](O)CN1
Type of data set: biochemical, Agrobacterium fabrum. To be noted: 4HypE reaction (start from t4Hyp as in Figure 1), 50 mM Na-phosphate pH 8.0, 1 mM DTT, 25°C.

Substrate in data set [10]: O=C(O)[C@@H]1C[C@@H](O)CN1
Type of data set: biochemical, Shewanella loihica. To be noted: 4HypE reaction (start from t4Hyp as in Figure 1), 50 mM Na-phosphate pH 8.0, 1 mM DTT, 25°C.

B1: Atu4684 (A9CH01) (Agrobacterium fabrum str. C58) (protein)
chain: MRSIKTVHVISAHAEGEVGDVIVGGVKPPPGETIWEQSRFIARDETLRNFVLNEPRGGVFRHVNLLVPPKHPDADAAFIIMEPEDTPPMSGSNSICVSTVLLDGGIVPMQEPETHMLLEAPGGLVKVRAECRNGKAERIFVQNLPSFAAKLDAELEVEGLGKLKVDTAYGGDSFVIVDAEAMGFSLKPEEAHEIARLGVRITNAANKALGFDHPENPDWRHFSFCLFAGKVERTAEGLRAGAAVAIQPGKVDRSPTGTALSARMAVLHARGEMKEGETLTAVSLIGSTFTGRILGTTTVGDRPAILPEISGRGWITGIHQHMLDPSDPWPEGYRLTDTWGAR
As to B1, in data set [1], the Km was 4.2 ± 0.8 mM and the kcat was 27 ± 1 s⁻¹.

B2: Pden_4859 (A1BBM5) (Paracoccus denitrificans PD1222) (protein)
chain: MTQYIFPCIDGHTCGNPVRLVAGGAPRLEGATMLEKRAHFLREFDWIRTGLMFEPRGHDMMSGAILYPPTRGDCDVAVLYIETSGCLPMCGHGTIGTITMGIENGLIVPRTPGRLSIETPAGKVDIEYRQEGRHVEEVRLTNVPGFLYAEGLTAEVEGLGEIVVDVAYGGNFYAIVEPQKNFRDMADHTAGELIGWSLTLRAALNQKYEFTHPEHPQINGLSHIQWTGAPTVPGAHARNAVFYGDKAIDRSPCGTGTSARMAQLAARGRLGVGDEFWHESIIGSIFKGRIEAAATVAGRDAIIPSIAGWARQTGLNTIFIDAERDPFAHGFVVK
Consider B2, for which, in data set [2], the Km was determined as 25 ± 5 mM and the kcat was determined as 16 ± 2 s⁻¹.

B3: Sros_6004 (D2AV87) (Streptosporangium roseum DSM 43021) (protein)
chain: MRTKRVFHAVDSHTEGMPTRVITGGVGVIPGSTMAERREHFLAEMDHVRTLLMYEPRGHSAMSGAILQPPTRPDADYGVLYIEVSGCLPMCGHGTIGVATVLVETGMVEVVEPVTTIRLDTPAGLVVAEVRVEDGAATAVTITNVPSFSAGLDRTVKVPGIGEVTYDLAYGGNFYAILPIESVGLPFDRAHKQQILDAGLAIMDAINEQDEPVHPLDAGIRGCHHVQFTAPGSDARHSRHAMAIHPGWFDRSPCGTGTSARMAQLHARGELPLDTDFVNESFIGTRFVGRLVEETEVTDLPAVVPTITGRAWVTGTAQYFLDPRDPFPEGFLL
With B3, in data set [3], the Km was 7.8 ± 1 mM and the kcat worked out at 14 ± 0.8 s⁻¹.

B4: Bamb_3769 (Q0B950) (Burkholderia ambifaria AMMD) (protein)
chain: MKISRSLSTVEVHTGGEAFRIVTSGLPRLPGDTIVQRRAWLKENADEIRRALMFEPRGHADMYGGYLTEPVSPTADFGVIFLHNEGYSDHCGHGVIALSTAAVELGWVQRTVPETRVGIDAPCGFIEAFVQWDGEHAGPVRFVNVPSFIWRRDVSVDTPSFGTVTGDIAYGGAFYFYVDGAPFDLPVREAAVEKLIRFGAEVKAAANAKYPVVHPEIPEINHIYGTIIANAPRHPGSTQANCCVFADREVDRSPTGSGTGGRVAQLYQRGVLAAGDTLVNESIVGTVFKGRVLRETMVGDIPAVIPEVEGSAHICGFANWIVDERDPLTYGFLVR
On to B4, for which, in data set [4], the Km came out at 13 ± 3 mM and the kcat is 43 ± 4 s⁻¹.

B5: Pden_1185 (A1B196) (Paracoccus denitrificans PD1222) (protein)
chain: MARKSSAPQFLSYGDATGRLSWRDAVEALRQGHTLPQAQIRDVFLGPPTGTMMSRSAWIEGLGYGAKTFTVFDGNAARGLPTVQGAMLVFDKDDGRLQAIVDSPLVTEFKTAADSVLGASLLARPDSRHLLIVGAGTVAASLVRAYTAVLPGIERVSVWARRPQQAQDLIEGLDGIEADLAAVSDLPAAVGQADIVSSATMARQPVILGAWVRPGTHVDLIGAFKADMREADDALMARAALFVDSRETTLGHIGELMLPIASGAITAESVLGDLYDLVRPGARRRQSEDEITVFKNGGGAHLDLMIASYIARVMAG
Take B5: in [5], the Km is 3.1 ± 0.7 mM and the kcat worked out at 260 ± 20 s⁻¹.

B6: SIAM614_28492 (A0NXQ7) (Roseibium aggregatum IAM 12614) (protein)
chain: MRVIDSHTAGEPTRVVLDGGPDLGSGTLAERAARLEAEHLDFCASVVLEPRGHDAIIGALLVPPSDPACAAGVIYFNNLQNLGMCGHATIGLGVTLAHLGRIRPGRHRFETPVGVVEIDLIDANTVSVVNIESYRLAKDVTVEVEGVGPVTGDVAWGGNWFFLVKNSPIALTGANIRPLTDLTLKIRTALEKAGVTGKDGAWIDHIELFGPAEDPAAQSRNFVLCPGGAYDRSPCGTGCSAKLACLAADGALAPGQDYLQESVIGSTYKISYQPGPGGGVIPTITGQAFVTSDATLIFNPADPYRSGIRL
As for B6, in data set [6], the Km was 3.2 ± 0.5 mM and the kcat was 55 ± 3 s⁻¹.

B7: SIAM614_28502 (A0NXQ9) (Roseibium aggregatum IAM 12614) (protein)
chain: MRSTKTIHVISCHAEGEVGDVIVGGVAPPPGETLWEQRSFIARDQTLRNFVLNEPRGGVFRHVNLLVPPRHPEADAAFIIMEPEDTPPMSGSNSICVSTVLLDGGIVPMIEPITEMVLEAPGGLVRVKAECRNGKAERIFVQNVTSFADKLSVPLDVEGIGTLTVDTAYGGDSFVVVDAEALGFAIVEDEAKDIARLGVRITNAANEQLGFSHPENPDWNHISFCAFCGPLSQTPTGLTGRSAVAIQPGKVDRSPTGTAVSARMALMAARGQMTIGDTFEAVSIIGSSFTGRIVSQQMAGDRPGIVPEISGRGWITGIHQHMLDPSDPWPGGYKLSDTWGA
With B7, in [7], the Km is on record as 7.8 ± 1 mM and the kcat is 15 ± 0.9 s⁻¹.

B8: SM_b20270 (Q92WR9) (Sinorhizobium meliloti 1021) (protein)
chain: MRSTKTIHVISAHAEGEVGDVIVGGVAPPPGDTIWEQSRWIAREQTLRNFVLNEPRGGVFRHVNLLVPPKHPDADAAFIIMEPEDTPPMSGSNSICVSTVLLDSGILPMKEPVTEITLEAPGGLVRVRAECRDGKAERIFVENLPSFAERLDAKLEVEGLGTLTVDTAYGGDSFVIVDAAAMGFALKPDEAHDIARLGVRITNAANAKLGFHHPENPDWRHFSFCLFAGPVERTAEGLRAGAAVAIQPGKVDRSPTGTALSARMAVLHARGQMGLSDRLTAVSLIGSTFSGRILGTTEVGGRPAVLPEISGRAWITGTHQHMLDPSDPWPEGYRLTDTWGAR
For B8, in data set [7], the Km was determined as 3.8 ± 0.4 mM and the kcat was determined as 7.9 ± 0.2 s⁻¹.

B9: Avi_7022 (B9K4G4) (Allorhizobium ampelinum S4) (protein)
chain: MRTNKVIHVIGVHAEGEVGDVIVGGVSPPPGDTLWEQSRFIASDETLRNFVLNEPRGGVFRHVNLLVPPKDPRAQMGFIIMEPADTPPMSGSNSICVSTAILDSGIISMQEPLTHMVLEAPGGVIEVTAECANGKAERINVLNVASFVTRLAAALEVEGLGTLTVDTAYGGDSFVIVDAIGLGFSLKPDEARELAELGMKITAAANEQLGFVHPCNADWNHISFCQMTTPITRENGILTGKSAVAIRPGKIDRSPTGTGCSARLAVMHARGEIGIGETYIGRSIIDSEFKCHIDSLTEIGGLSAIRPVISGRAWITGVSQLMLDPTDPWPSGYQLSDTWPAI
Turning to B9, in data set [8], the Km came to 15 ± 3 mM and the kcat came out at 4.3 ± 0.4 s⁻¹.

B10: Atu0398 (A9CKB4) (Agrobacterium fabrum str. C58) (protein)
chain: MRWKRTLQLLDVHCEGEIGRVVTGGAPKIPGNTVAEQLHWMNTDPQGEALRRFLTLEPRGTPMGSVDLLLPPKHPDAHAAFVILQPDQAHASSGSNSICATTALLESGMVEMQEPETVIILETAAGLVKATATCRDGRCEKVKLTMVPSFVHELDVSIDTPEWGRVTMDISYGGIFYALVDVRQIGLTIEKANAAKLVAAGMTLKDLVNREMTVVHPEIPAISGVAYVMFRDVDADGSIRTCTTMWPGRADRSPCGTGNSANLATLYARGKVKVGDEYKSRSIIGSEFDVGLSAVTEVAGRPAVIPTIAGRGFTFGLHQVGLDPFDPLGDGFAMTDVWGPEAGNI
B10: in data set [9], the Km came out at 4.6 ± 2 mM and the kcat stood at 0.86 ± 0.1 s⁻¹.

B11: Shew_2363 (A3QFI1) (Shewanella loihica PV-4) (protein)
chain: MLKGTFFCVDAHTCGNPVRLVTSGHPDLKGRTMSEKRQDFLAQYDWIRKALMFEPRGHDMMSGAFLYPPCSDNADAAILFIETSGCLPMCGHGTIGTITAALESGLLTPKMPGQLTIDVPAGQIKVQYQQTGAKVDWVKIFNVPAYLAHKDVVLDIPGLGPLKIDVSYGGNYYAIVDPQANFPGLRHWSAGDILRWSPIVREVAHRELNCVHPDDPTVNGVSHVLWTGDTISEGSNGANAVFYGDKAIDRSPCGTGTSARLAQLYSRGELKVGDEYTHESIIGSQFVGRIEAATKVGAFDAIMPSIKGWARITGHNAITVDDNDPYAFGFQVV
Take B11: in [10], the Km is given as 12 ± 3 mM and the kcat is 50 ± 6 s⁻¹.

B12: PFL_1416 (Q4KGT8) (Pseudomonas protegens Pf-5) (protein)
chain: MSEYITLSLDEVCALSYQVLTRHGLSDAHARAIAEVITQGQRDECHSHGVYRLLGCVRSVREGRIDPRAEPSLRHVSPGVLEVDAHYGYSLLGFHTGLPILAEKARSQGIAAMVIKRCFHFSALWPEVEAIADYGLVGMAMNPSHSWVAPAGGRQPVFGTNPLAFAWPRPGGQPFVFDFATSAIARGDIELHARQGKPIPEHWAIDADGQPTTDAKAALQGAMQTFGGHKGSALAAMIELLAGALIGDLTSAESMAFDGGVGATPCHGELVLAFDPRVFLGEGYEQGLERAEGLFAAIARQGARLPSQRRFAARARSLEHGVQIPRGLLEDIRGLL
For the protein B12, in data set [5], the Km amounted to 1.1 ± 0.2 mM and the kcat was 20 ± 0.8 s⁻¹.

B13: RSP_0854 (Q3IZJ8) (Cereibacter sphaeroides 2.4.1) (protein)
chain: MSIEIIGPEAEAHLSWDGLTTALTQGHKLPRAEVADIFLYRGKDTVLSRAAWIDGLGQLVKTATIFPGNGAAGKPTVNGAVTLYSDRDGTLEALVDFHLVTKWKTAGDSLLAAKRLARRDSREILLVGAGNVARSMIEAYGSHFPDARFTVWNRSADKARAMEGPQVRATEDLEAAVRAADIICTATMSQEPVVKGEWLKPGTHLDLIGAYRPDMREVDDEALRRATVFVDSRKTTIGHIGEIQDPLDRGILTEADIRADYYDLASGLYARRSDEEITLAKNGGGAHLDLMTASYIAAMWRQR
Turning to B13, in data set [5], the Km amounted to 0.43 ± 0.09 mM and the kcat turned out to be 66 ± 4 s⁻¹.

Broadly, the Km is the concentration of substrate that gives half-maximal velocity. Broadly, the kcat is the number of substrate molecules converted per active site and unit of time at saturation.

The record behind these values is publication PMC4113996, “Prediction and characterization of enzymatic activities guided by sequence similarity and genome neighborhood networks” (eLife, 2014).
